Earlier results on one substance are cited in article PMC6780499, “Characterization, Recombinant Production and Structure-Function Analysis of NvCI, A Picomolar Metallocarboxypeptidase Inhibitor from the Marine Snail Nerita versicolor” (Marine Drugs, 2019).

The target in one series is T1, pCPB (Sus scrofa, UniProt P09955).
T1 sequence (P09955 111-416): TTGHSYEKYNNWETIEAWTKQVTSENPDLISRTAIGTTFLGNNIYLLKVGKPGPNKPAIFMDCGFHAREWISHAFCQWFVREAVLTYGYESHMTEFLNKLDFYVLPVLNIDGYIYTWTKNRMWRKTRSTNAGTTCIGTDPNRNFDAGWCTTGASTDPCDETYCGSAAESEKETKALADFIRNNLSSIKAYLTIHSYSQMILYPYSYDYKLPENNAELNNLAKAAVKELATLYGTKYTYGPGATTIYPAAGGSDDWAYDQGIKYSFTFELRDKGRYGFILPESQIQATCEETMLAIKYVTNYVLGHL
Conditions: ref Arolas et al., 2005 [12]; cited from earlier work. An excerpt:
Table 2 Ki values of various proteinaceous metallocarboxypeptidases (MCPs) inhibitors. | column: Ki (nM) / rPCI (a); Ki (nM) / rTCI (b); Ki (nM) / rLCI (c)

A further series has as its target T2, hTAFI (Homo sapiens, UniProt Q96IY4).
T2 sequence (Q96IY4 115-423): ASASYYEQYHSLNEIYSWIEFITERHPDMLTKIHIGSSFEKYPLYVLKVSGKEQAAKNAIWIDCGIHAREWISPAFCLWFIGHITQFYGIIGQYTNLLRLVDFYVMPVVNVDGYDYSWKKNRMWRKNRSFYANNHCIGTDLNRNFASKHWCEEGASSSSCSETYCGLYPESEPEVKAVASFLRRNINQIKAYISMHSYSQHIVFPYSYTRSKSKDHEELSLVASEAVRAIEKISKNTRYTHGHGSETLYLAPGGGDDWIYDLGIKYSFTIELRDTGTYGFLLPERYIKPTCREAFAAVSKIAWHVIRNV
Conditions: ref Arolas et al., 2005 [12]; cited from earlier work. The text has this:
Table 2 Ki values of various proteinaceous metallocarboxypeptidases (MCPs) inhibitors. | column: Ki (nM) / rPCI (a); Ki (nM) / rTCI (b); Ki (nM) / rACI (d); Ki (nM) / rhuman latexin (e)

In another series the target is T3, hCPB (Homo sapiens, UniProt P15086).
T3 sequence (P15086 111-417): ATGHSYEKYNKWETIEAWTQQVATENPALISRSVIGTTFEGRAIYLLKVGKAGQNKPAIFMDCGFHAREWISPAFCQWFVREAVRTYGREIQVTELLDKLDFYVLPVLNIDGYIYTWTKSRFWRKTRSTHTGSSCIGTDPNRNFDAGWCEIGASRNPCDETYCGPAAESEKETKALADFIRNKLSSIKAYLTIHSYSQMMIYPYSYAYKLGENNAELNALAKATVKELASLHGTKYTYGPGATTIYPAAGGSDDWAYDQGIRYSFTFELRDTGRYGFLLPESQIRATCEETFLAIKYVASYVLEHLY
Conditions: ref Arolas et al., 2005 [12]; cited from earlier work. The text has this: Table 2 Ki values of various proteinaceous metallocarboxypeptidases (MCPs) inhibitors. | column: Ki (nM) / rPCI (a); Ki (nM) / rTCI (b); Ki (nM) / rLCI (c); Ki (nM) / rhuman latexin (e)

In another series the target is T4, hCPA1 (Homo sapiens, UniProt P15085).
T4 sequence (P15085 111-419): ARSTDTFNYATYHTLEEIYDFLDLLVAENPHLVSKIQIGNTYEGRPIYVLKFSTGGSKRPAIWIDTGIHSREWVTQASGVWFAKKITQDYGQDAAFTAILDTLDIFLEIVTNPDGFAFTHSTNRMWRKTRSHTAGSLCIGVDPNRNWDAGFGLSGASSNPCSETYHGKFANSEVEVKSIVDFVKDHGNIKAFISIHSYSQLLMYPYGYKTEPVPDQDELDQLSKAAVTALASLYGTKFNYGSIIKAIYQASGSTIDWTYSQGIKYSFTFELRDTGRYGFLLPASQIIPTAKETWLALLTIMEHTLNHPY
Conditions: ref Arolas et al., 2005 [12]; cited from earlier work. The text has this:
(§1) Table 2 Ki values of various proteinaceous metallocarboxypeptidases (MCPs) inhibitors. | column: Ki (nM) / rPCI (a); Ki (nM) / rTCI (b); Ki (nM) / rLCI (c); Ki (nM) / rACI (d); Ki (nM) / rhuman latexin (e)

A further series deals with T5, hCPA2 (Homo sapiens, UniProt P48052).
T5 sequence (P48052 115-419): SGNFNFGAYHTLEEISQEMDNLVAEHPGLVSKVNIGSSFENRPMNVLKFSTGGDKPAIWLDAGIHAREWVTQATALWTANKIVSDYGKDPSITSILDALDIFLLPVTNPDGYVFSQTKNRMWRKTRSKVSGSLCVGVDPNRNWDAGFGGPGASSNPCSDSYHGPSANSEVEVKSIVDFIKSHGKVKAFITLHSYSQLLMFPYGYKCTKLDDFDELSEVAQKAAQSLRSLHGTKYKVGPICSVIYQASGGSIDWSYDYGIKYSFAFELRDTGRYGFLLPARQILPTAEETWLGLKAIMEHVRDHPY
Particulars: ref Arolas et al., 2005 [12]; cited from earlier work.
Text: as §1

For a further series, the target named is T6, bCPA1 (Bos taurus, UniProt P00730).
T6 sequence (P00730 111-419): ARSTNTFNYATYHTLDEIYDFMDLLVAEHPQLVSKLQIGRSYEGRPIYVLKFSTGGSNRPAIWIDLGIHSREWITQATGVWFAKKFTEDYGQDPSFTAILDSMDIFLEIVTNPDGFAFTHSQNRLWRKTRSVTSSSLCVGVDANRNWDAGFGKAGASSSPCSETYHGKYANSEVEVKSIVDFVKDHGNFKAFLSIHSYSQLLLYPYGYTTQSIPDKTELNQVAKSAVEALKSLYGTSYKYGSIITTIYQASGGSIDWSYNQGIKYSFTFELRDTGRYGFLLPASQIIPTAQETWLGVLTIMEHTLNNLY
Conditions: ref Arolas et al., 2005 [12]; cited from earlier work.
Text: as §1

The next series concerns the target T7, hCPA4 (Homo sapiens, UniProt Q9UI42).
T7 sequence (Q9UI42 114-421): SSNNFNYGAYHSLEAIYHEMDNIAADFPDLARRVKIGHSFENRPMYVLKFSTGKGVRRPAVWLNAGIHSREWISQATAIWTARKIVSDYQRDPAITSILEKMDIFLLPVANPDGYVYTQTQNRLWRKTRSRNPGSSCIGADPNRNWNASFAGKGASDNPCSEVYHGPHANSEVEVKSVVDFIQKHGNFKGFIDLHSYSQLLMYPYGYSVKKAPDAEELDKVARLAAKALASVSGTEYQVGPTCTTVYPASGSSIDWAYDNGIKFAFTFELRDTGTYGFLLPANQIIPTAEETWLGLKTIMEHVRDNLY
Particulars: ref Tanco et al., 2010 [22]; cited from earlier work.
Text: as §1

A further series addresses T8, bTAFI (Bos taurus, UniProt Q2KIG3).
T8 sequence (Q2KIG3 115-423): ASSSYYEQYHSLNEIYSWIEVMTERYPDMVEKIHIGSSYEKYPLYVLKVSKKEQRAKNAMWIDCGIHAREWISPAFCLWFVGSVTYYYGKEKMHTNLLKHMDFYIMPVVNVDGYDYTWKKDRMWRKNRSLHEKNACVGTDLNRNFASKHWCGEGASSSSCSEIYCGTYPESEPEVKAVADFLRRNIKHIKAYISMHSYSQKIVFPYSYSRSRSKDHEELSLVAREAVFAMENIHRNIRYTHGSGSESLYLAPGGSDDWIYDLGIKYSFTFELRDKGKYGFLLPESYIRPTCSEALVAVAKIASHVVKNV
Particulars: ref Arolas et al., 2005 [12]; cited from earlier work. The text has this:
Table 2 Ki values of various proteinaceous metallocarboxypeptidases (MCPs) inhibitors. | column: Ki (nM) / rPCI (a); Ki (nM) / rTCI (b)

As to “rPCI: recombinant proteinaceous carboxypeptidase inhibitor from potato (QQHADPICNKPCKTHDDCSGAWFCQACWNSARTCGPYVG; UniProt P01075 1-39, looked up) [reference compound]”, the inhibitory constant (Ki) (in general, a dissociation constant, usually derived from enzyme kinetics or from competition with a known ligand) in the series with pCPB is 7.2 ± 0.6 nM; with hTAFI it was 5.2 ± 0.5 nM; in the series with hCPB, 1.8 ± 0.3 nM; with hCPA1, 1.6 ± 0.3 nM; with hCPA2, 8.8 ± 0.7 nM; in the series with bCPA1, 1.6 ± 0.2 nM. Also, the inhibition constant Ki with hCPA4 was 1.3 ± 0.1 nM; with bTAFI it was 2.5 ± 0.4 nM.
